Substrate: O=C1O[C@H]([C@@H](O)CO)C(O)=C1O
Test: steady-state Michaelis-Menten kinetics
Assay type: biochemical, Populus tomentosa
Settings: fixed H2O2 concentration
Excerpt: steady-state Michaelis-Menten kinetics on PtosAPX

B1: PtosAPX (Populus tomentosa) (protein)
chain: ASDAAQLKSAREDIKELLKSKFCHPILVRLGWHDAGTYNKNIEEWAKRGGANGSLRFEIELKHAANAGLVDALKLIQPIKDKYSGVTYADLFQMASATAIEEAGGPKIPMKYGRVDVSVPDECPEEGRLPDAGPPKPADHLRGVFYRMGLDDKEIVALSGAHTLGRSRPERSGWGKPETKYTKNGPGAPGGQSWTAEWLKFDNSYFKDIKERKDEDLLVLPTDAALFEDPSFKVYAEKYAEDKEAFFKDYAEAHAKLSNLGAKFDPPEGIMLDGVAGEKFVAAKYSSGKD
notes: ORF minus N-terminal targeting peptide, pET30a, E. coli, purified; 39 kDa on SDS-PAGE; full ORF 1,086 bp; homologue of P. trichocarpa JGI 209946
Question: For B1, which Km is on record?
Answer: The Km was 4.30 ± 1.81 mM.

Question: What about the Vmax of the same protein?
Answer: The Vmax was 850 µM/min.

Question: What about the kcat of the same protein?
Answer: The kcat was 15000 s⁻¹.

Question: And the kcat/Km?
Answer: The kcat/Km was 3.48e+06 M⁻¹ s⁻¹.

From paper PMC6925217, “PtomtAPX, a mitochondrial ascorbate peroxidase, plays an important role in maintaining the redox balance of Populus tomentosa Carr” (Scientific Reports, 2019)
